# Key:
# [1] = cited from earlier work
# [2] = Cross-reactivity test of monoclonal antibody 5D2: FTC; type: binding
# Experimental: (§1) The monoclonal antibody 5D2 was tested for cross-reactivity. 5D2 was determined to be specific for FTC, and to not bind to the following compounds: […]
# [3] = FTC screening assay: EIA on FTC-peptide coated plates with competition by free FTC; type: binding; details: supernatant incubated with free FTC
# Experimental: (§2) An assay was developed to screen the Mabs for reactivity to the FTC conjugates. Microtiter plates were coated with the following reagents: FTC-peptide-dextran, FTC-peptide, FTC-peptide-LPH, FTC-peptide-BSA, FTC heptanoic acid, peptide only, peptide-LPH, peptide-BSA, BSA, LPH, and normal mouse serum (NMS). All compounds were diluted into sodium bicarbonate buffer, pH 9.6, to a concentration of 5 ug/ml; NMS was diluted 1:15. One hundred microliters of each solution was added to a column of the microtiter plate such that each row of the plate allowed the testing of a single clonal supernatant against all of the compounds in a single run. Plates were incubated at 4° C. overnight and then washed 3× with phosphate-buffered saline (PBS) containing 0.05% Tween 20 (PBS-T). Plates were blocked with PBS containing 0.5% nonfat dry milk for 1 hour at 37° C., washed 3×, and dried at 37° C. for 30 minutes. […]
# (§3) Clonal supernatants (100 ul) were added to the appropriate wells and incubated at 37° C. for 1 hr. […] Absorbance was measured at 450 nm with a 630 nm reference.
# (§4) Persistently reactive clones were further tested using FTC-peptide coated plates. […] Antibodies that yielded a reduction in absorbance versus the sample containing no FTC were selected for optimization in a FTC detection assay.
# [4] = Cross-reactivity test of monoclonal antibody 5D2: related compounds; type: binding; details: Lamivudine (3TC), FTC-Triphosphate, FTC-Diphosphate, Cytidine, Deoxycytidine, Deoxyuridine, Guanosine, Deoxyguanosine, Deoxyadenosine, Adenosine, Thymidine, Uridine, 5-Methyluridine
# Experimental: as §1
# [5] = tested on: carrier proteins (LPH, BSA); assay: FTC screening assay: EIA on plates coated with carrier proteins; type: binding; details: plates coated at 5 ug/ml
# Experimental: as §2, §3, §4
# [6] = Competitive indirect EIA, reactivity of 5D2 to naturally occurring structural analogs; type: binding; details: cytidine, cysotine, deoxycytidine, adenine, adenosine, deoxyadenosine, guanine, guanosine, deoxyguanosine, thymine, 5-methyluridine, thymidine, uracil, uridine, deoxyuridine; 12 to 1,000 ug/ml
# Excerpt: Because FTC is an analog of cytidine, a competitive indirect EIA was used to evaluate the reactivity of 5D2 to naturally occurring structural analogs consisting of nitrogenous nucleic acid bases, ribonucleosides, and deoxyribonucleosides, including cytidine, cysotine, deoxycytidine, adenine, adenosine, deoxyadenosine, guanine, guanosine, deoxyguanosine, thymine, 5-methyluridine, thymidine, uracil, uridine, and deoxyuridine. For the competitive assay, the concentrations of these analogs ranged from 12 to 1,000 ug/ml which is similar to the range of FTC found in urine. Reactivity was not detected to all of these naturally occurring analogs using this EIA.
binding to related compounds (cross-reactivity) [4],Molecule,concentration found in serum or plasma ([1]; serum or plasma),concentration excreted unchanged in urine ([1]; urine),specificity for FTC [2],reactivity with FTC (reduction in absorbance versus sample containing no FTC) [3],reactivity with the carrier proteins [5],reactivity to naturally occurring analogs [6]
,Nc1nc(=O)n([C@@H]2CS[C@H](CO)O2)cc1F [FTC],1 to 300 ng/mL,1 to 500 µg/mL,,,,
not bind,"5D2: mouse IgG2b kappa monoclonal antibody that specifically binds FTC; heavy chain SEQ ID NO: 1, light chain SEQ ID NO: 2 (antibody, listed as Mus musculus) heavy: QVQLQQPGAELVKPGASVKVSCKASGYTFTSYWMHWVKQRPGQGLEWIGRIHLSDSDTNYNQNFKDKATLTVDKSSRTAHMHLSSLTSADSAVYYCAMGGTFQSNYDTYWGQGTLVTVSAAKTTPPSVYPLAPGCGDTTGSSVTLGCLVKGYFPESVTVTWNSGSLSSSVHTFPALLQSGLYTMSSSVTVPSSTWPSQTVTCSVAHPASSTTVDKKLEPSGPISTINPCPPCKECHKCPAPNLEGGPSVFIFPPNIKDVLMISLTPKVTCVVVDVSEDDPDVRISWFVNNVEVHTAQTQTHREDYNSTIRVVSALPIQHQDWMSGKEFKCKVNNKDLPSPIERTISKIKGLVRAPQVYILPPPAEQLSRKDVSLTCLVVGFNPGDISVEWTSNGHTEENYKDTAPVLDSDGSYFIYSKLDIKTSKWEKTDSFSCNVRHEGLKNYYLKKTISRSPGK light: DIQMTQSPASLSASVGETVTITCRASGNIHNYLAWYQQKQGKSPQLLVYNAKTLTDGVPSRFSGSGSGTQYSLKINSLQPEDFGNYYCQHFLYTPYTFGGGTKLEMRRADAAPTVSIFPPSSEQLTSGGASVVCFLNNFYPKDINVKWKIDGSERQNGVLNSWTDQDSKDSTYSMSSTLTLTKDEYERHNSYTCEATHKTSTSPIVKSFNRNEC",,,specific,competitively reactive,did not react,not detected
